Key:
[1] = molecular target: T1, ω-transaminase from Vibrio fluvialis JS17 (VfTA) (Vibrio fluvialis, UniProt F2XBU9); experiment: enzyme kinetics (GC assay), product inhibition of VfTA; format: biochemical
T1 sequence (F2XBU9 1-453): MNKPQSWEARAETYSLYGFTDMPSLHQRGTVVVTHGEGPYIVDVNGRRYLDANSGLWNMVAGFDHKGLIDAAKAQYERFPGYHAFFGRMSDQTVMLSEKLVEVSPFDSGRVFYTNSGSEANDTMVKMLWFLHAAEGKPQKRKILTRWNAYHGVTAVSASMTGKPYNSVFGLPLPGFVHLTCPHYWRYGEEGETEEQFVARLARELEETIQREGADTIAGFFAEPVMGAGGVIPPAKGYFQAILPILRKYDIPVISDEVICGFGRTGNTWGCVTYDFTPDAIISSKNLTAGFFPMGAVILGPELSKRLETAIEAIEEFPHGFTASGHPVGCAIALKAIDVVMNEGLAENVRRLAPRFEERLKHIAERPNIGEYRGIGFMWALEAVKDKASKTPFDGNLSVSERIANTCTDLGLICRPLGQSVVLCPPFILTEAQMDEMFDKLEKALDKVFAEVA

[2] = molecular target: T1, ω-transaminase from Vibrio fluvialis JS17 (VfTA); experiment: product formation by purified VfTA (GC); no product inhibition detected; format: biochemical
purified protein = substrate: C[C@H](N)c1ccccc1; experiment: purified protein; format: biochemical, Vibrio fluvialis; conditions: pyridoxal-5'-phosphate (PLP)
[3] = substrate: CC(C)[C@@H]1CC[C@@H](C)CC1=O; experiment: steady-state kinetics with purified VfTA (KM, GC assay); format: biochemical, Vibrio fluvialis; conditions: pyridoxal-5'-phosphate (PLP)

CC(=O)c1ccccc1 [Acetophenone]
Ki [1]: 600 µM

CC(C)[C@@H]1CC[C@@H](C)C[C@@H]1N [(+)-neomenthylamine]
product formation by purified VfTA (GC); no product inhibition detected [2]: transaminase (VfTA) from Vibrio fluvialis JS17 (PDB: 5ZTX) that can convert (−)-menthone into (+)-neomenthylamine successfully

B1: ω-transaminase from Vibrio fluvialis JS17 (VfTA) (Vibrio fluvialis) (protein)
chain: MNKPQSWEARAETYSLYGFTDMPSLHQRGTVVVTHGEGPYIVDVNGRRYLDANSGLWNMVAGFDHKGLIDAAKAQYERFPGYHAFFGRMSDQTVMLSEKLVEVSPFDSGRVFYTNSGSEANDTMVKMLWFLHAAEGKPQKRKILTRWNAYHGVTAVSASMTGKPYNSVFGLPLPGFVHLTCPHYWRYGEEGETEEQFVARLARELEETIQREGADTIAGFFAEPVMGAGGVIPPAKGYFQAILPILRKYDIPVISDEVICGFGRTGNTWGCVTYDFTPDAIISSKNLTAGFFPMGAVILGPELSKRLETAIEAIEEFPHGFTASGHPVGCAIALKAIDVVMNEGLAENVRRLAPRFEERLKHIAERPNIGEYRGIGFMWALEAVKDKASKTPFDGNLSVSERIANTCTDLGLICRPLGQSVVLCPPFILTEAQMDEMFDKLEKALDKVFAEVA
Km (purified protein): 0.8 ± 0.1 mM
kcat/Km (purified protein): 54400 M⁻¹ s⁻¹
Km [3]: 5.0 ± 0.6 mM
kcat/Km [3]: 3300 M⁻¹ s⁻¹
